Target: F-actin (pre-polymerized actin filaments) (UniProt P68135)
Assay: co-sedimentation

| Kd [µM] | duty ratio KABD = kon/(kon + koff) | Substance |
| --- | --- | --- |
| 10 | 0.1 | 10xHis-SNAP-EzrABD K577A (domain or fragment) |
| – | 0.14 | 10xHis-SNAP-EzrABD (domain or fragment) |
| 0.4 | 0.71 | 10xHis-SNAP-UtrABD (from UniProt P46939 1-261) (domain or fragment) |

— doi:10.1101/2025.08.29.673170
